The record followed here is patent US20210388087A1 (Chugai, published 2021).

Changes are numbered by the printed parent chain.

The labels stand for the following.
B1: dBBDu167/L091 (antibody, V domains shown)
VH: QVQLVESGGGLVQPGRSLRLSCAASGFTFSNAWMHWVRQAPGKGLEWVAQIKDKGNLYAAYYAPSVKGRFTISRDDSKNSIYLQMNSLKTEDTAVYYCHYVHYASAGGGLPGFGVDAWGQGTTVTVSS
VL: DIVMTQSPLSLPVTPGEPASISCSASESLLHNNRHTYLHWYQQKPGQAPRLLIYRVSNRFNGVPDRFSGSGSGTDFTLKISRVEAEDVGVYYCGQGTQVPFTFGQGTKLEIK
notes: IgG format; constant regions not specified
B2: dBBDu189/L112 (antibody, V domains shown)
VH: B1 VH with V48I, K54R, G55S, L57Q, A60T, S105Q, G107S, G108S, G109L, G112S
VL: DIVMTQSPLSLPVTPGEPASISCTSDQELVHMNRHTYLHWYQQKPGQAPRLLIYKVYNRFPGVPDRFSGSGSGTDFTLKISRVEAEDVGVYYCAQGTSVPFTFGQGTKLEIK
notes: as for B1
B3: dBBDu189/L116 (antibody, V domains shown)
VH: B1 VH with V48I, K54R, G55S, L57Q, A60T, S105Q, G107S, G108S, G109L, G112S
VL: B2 VL with T24S, D26S, M32A, H35Q, T36I, Y57A, S98Q
notes: as for B1
B4: dBBDu183/L063 (antibody, V domains shown)
VH: B1 VH with L57A, G107S, G108T, G109V, G112A
VL: B2 VL with T24R, D26S, M32T, Y57S, S98Q
notes: as for B1
B5: dBBDu183/L072 (antibody, V domains shown)
VH: B1 VH with L57A, G107S, G108T, G109V, G112A
VL: B2 VL with T24Q, S25A, D26S, H35N, Y57S
notes: IgG format; also called H183L072
B6: dBBDu186/L096 (antibody, V domains shown)
VH: B1 VH with K54R, G55S, L57Q, A60T, S105Q, G107S, G108T, G109V, G112A
VL: B2 VL with T24R, S25T, D26S, M32I, H35Y, T36I, Y37F, P61Q, F101Y
notes: as for B1
B7: dBBDu183/L067 (antibody, V domains shown)
VH: B1 VH with L57A, G107S, G108T, G109V, G112A
VL: B2 VL with T24Q, D26S, Q27E, E28S, M32V
notes: as for B1
B8: dBBDu197 (antibody, V domains shown)
VH: B1 VH with K54R, G55S, L57A, G107S, G108T, G109V, G112A
VL: B1 VL with S24R, A25S, E27Q, L30V, N32S, H35N, R55K, N61S, F101Y
notes: Human IgG1; light chain GLS3000 (kappa)
B9: dBBDu139 (antibody, V domains shown)
VH: QVQLVESGGGLVQPGRSLRLSCAASGFTFSNAWMHWVRQAPGKGLEWVAQIKDRGNAYNAYYAESVKGRFTISRDDSKNSIYLQMNSLKTEDTAVYYCRFVHYRHPLLHIQYGVDAWGQGTTVTVSS
VL: B1 VL with S24R, A25S, E27Q, L30V, N32S, H35N, R55K, N61S, F101Y
notes: as for B8
B10: dBBDu217 (antibody, V domains shown)
VH: QVQLVESGGGLVQPGRSLRLSCAASGFTFSNAWMHWVRQAPGKGLEWVAQIKDRQQGYATYYAPSVKGRFTISRDDSKNSIYLQMNSLKTEDTAVYYCRFVHYHLAGYGYYGVDAWGQGTTVTVSS
VL: B1 VL with S24R, A25S, E27Q, L30V, N32S, H35N, R55K, N61S, F101Y
notes: as for B8
B11: dBBDu174 (antibody, V domains shown)
VH: QVQLVESGGGLVQPGRSLRLSCAASGFTFSSAWMHWVRQAPGKGLEWVAQIKDRASAYNAYYAESVKGRFTISRDDSKNSIYLQMNSLKTEDTAVYYCRYVHYPSYVSFLPYYGVDAWGQGTTVTVSS
VL: B1 VL with S24R, A25S, E27Q, L30V, N32S, H35N, R55K, N61S, F101Y
notes: as for B8
B12: dBBDu205 (antibody, V domains shown)
VH: B1 VH with K54R, G55S, N56Q, G107S, G108T, G109V, G112A
VL: B1 VL with S24R, A25S, E27Q, L30V, N32S, H35N, R55K, N61S, F101Y
notes: as for B8
B13: dBBDu167 (antibody, V domains shown)
VH: B1 VH
VL: B1 VL with S24R, A25S, E27Q, L30V, N32S, H35N, R55K, N61S, F101Y
notes: as for B8
B14: dBBDu189 (antibody, V domains shown)
VH: B1 VH with V48I, K54R, G55S, L57Q, A60T, S105Q, G107S, G108S, G109L, G112S
VL: B1 VL with S24R, A25S, E27Q, L30V, N32S, H35N, R55K, N61S, F101Y
notes: as for B8
B15: dBBDu193 (antibody, V domains shown)
VH: B1 VH with K54R, G55S, L57Q, A60T, A104S, S105A, G107S, G108T, G109L, G112S
VL: B1 VL with S24R, A25S, E27Q, L30V, N32S, H35N, R55K, N61S, F101Y
notes: as for B8
B16: dBBDu186 (antibody, V domains shown)
VH: B1 VH with K54R, G55S, L57Q, A60T, S105Q, G107S, G108T, G109V, G112A
VL: B1 VL with S24R, A25S, E27Q, L30V, N32S, H35N, R55K, N61S, F101Y
notes: as for B8
B17: dBBDu199 (antibody, V domains shown)
VH: B1 VH with G55Q, N56S, L57G, A59N, A60T, G107S, G108T, G109V, G112A
VL: B1 VL with S24R, A25S, E27Q, L30V, N32S, H35N, R55K, N61S, F101Y
notes: as for B8
B18: dBBDu173 (antibody, V domains shown)
VH: B1 VH with P111S, G112A, F113Y
VL: B1 VL with S24R, A25S, E27Q, L30V, N32S, H35N, R55K, N61S, F101Y
notes: as for B8
B19: dBBDu202 (antibody, V domains shown)
VH: B1 VH with L57A, A104S, S105A, G107S, G108T, G109V, G112A
VL: B1 VL with S24R, A25S, E27Q, L30V, N32S, H35N, R55K, N61S, F101Y
notes: as for B8
B20: dBBDu183 (antibody, V domains shown)
VH: B1 VH with L57A, G107S, G108T, G109V, G112A
VL: B1 VL with S24R, A25S, E27Q, L30V, N32S, H35N, R55K, N61S, F101Y
notes: Human IgG1; light chain GLS3000 (kappa), before light chain maturation
B21: dBBDu222 (antibody, V domains shown)
VH: QVQLVESGGGLVQPGRSLRLSCAASGFTISSAWMHWVRQAPGKGLEWVAQIKDRANGYAAYYAPSVKGRFTISRDDSKNSIYLQMNSLKTEDTAVYYCRYVHYATAYDGFYGFGVDAWGQGTTVTVSS
VL: B1 VL with S24R, A25S, E27Q, L30V, N32S, H35N, R55K, N61S, F101Y
notes: as for B8
B22: dBBDu179 (antibody, V domains shown)
VH: B1 VH with K54R, G55S, L57Q, A60T, G107S, G108T, G109V, G112A
VL: B1 VL with S24R, A25S, E27Q, L30V, N32S, H35N, R55K, N61S, F101Y
notes: as for B8
B23: dBBDu204 (antibody, V domains shown)
VH: B1 VH with K54R, G55S, L57N, A60T, P64E, G107S, G108T, G109V, G112A
VL: B1 VL with S24R, A25S, E27Q, L30V, N32S, H35N, R55K, N61S, F101Y
notes: as for B8
B24: dBBDu196 (antibody, V domains shown)
VH: B1 VH with K54R, L57A, A59N, P64E, G107S, G108T, G109V, G112A
VL: B1 VL with S24R, A25S, E27Q, L30V, N32S, H35N, R55K, N61S, F101Y
notes: as for B8

One assay has as its target T1, cyno CD137 (cynomolgus monkey, UniProt Q07011 24-186 (human entry), limits assumed).
T1 construct: also called cynomolgus monkey CD137
T1 chain: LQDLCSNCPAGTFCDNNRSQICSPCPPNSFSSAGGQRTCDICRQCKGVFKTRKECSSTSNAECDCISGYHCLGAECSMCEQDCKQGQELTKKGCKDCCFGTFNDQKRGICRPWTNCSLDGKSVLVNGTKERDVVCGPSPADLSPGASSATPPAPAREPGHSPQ
The assay is described as follows: SPR Biacore T200, IgG captured on protein A, 25 C.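 Also: antigens diluted in ACES running buffer at pH 7.4 were flowed over antibodies held on a CM3 chip bearing amine-coupled protein A, with buffer alone serving as blank.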 In general terms: In SPR one partner is held on a chip, and binding of the other changes the refractive index at the surface.
B1 yielded a Kd of 4.17 µM, a koff of 0.0101 s⁻¹ and an on-rate (kon) of 2430 M⁻¹ s⁻¹.
In turn, B2 returned a dissociation constant (Kd) of 5.76 µM, a koff of 0.0286 s⁻¹ and a kon of 4980 M⁻¹ s⁻¹.
The molecule B3 had a Kd of 11.1 µM, a koff of 0.00823 s⁻¹ and a kon of 744 M⁻¹ s⁻¹.
As to B4, the Kd is 3.12 µM, the koff was determined as 0.00457 s⁻¹ and the kon was 1470 M⁻¹ s⁻¹.
On to B5, for which the affinity, expressed as Kd, was 4.87 µM; the koff was determined as 0.00593 s⁻¹; the kon was found to be 1220 M⁻¹ s⁻¹.
The molecule B6 registered a Kd of 205 µM and a koff of 0.00223 s⁻¹.
The molecule B7 yielded a Kd of 6.2 µM, a koff of 0.00813 s⁻¹ and a kon of 1310 M⁻¹ s⁻¹.

For a further assay, the target named is human CD3 ed (human, UniProt P07766 23-126; P04234 22-105, limits assumed). The assay is described as follows: SPR Biacore T200, IgG captured on protein A, 25 C.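 Also: antigens diluted in ACES running buffer at pH 7.4 were flowed over antibodies held on a CM3 chip bearing amine-coupled protein A, with buffer alone serving as blank.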
B1 displayed a Kd of 413 nM, a koff of 0.0216 s⁻¹ and a kon of 52400 M⁻¹ s⁻¹.
In the same order, the values of B2 are 331 nM, 0.01 s⁻¹ and 30300 M⁻¹ s⁻¹.
In the same order, the values of B3 are 209 nM, 0.00434 s⁻¹ and 20800 M⁻¹ s⁻¹.
B4 yielded a Kd of 276 nM, a koff of 0.0157 s⁻¹ and a kon of 56900 M⁻¹ s⁻¹.
Taken in the same sequence, the figures for B5 were 217 nM, 0.00785 s⁻¹ and 36100 M⁻¹ s⁻¹.
Turning to B6, binding was put at a Kd of 9110 nM, the koff came to 0.102 s⁻¹ and the kon came to 11200 M⁻¹ s⁻¹.
B7 returned a Kd of 217 nM, a koff of 0.0193 s⁻¹ and a kon of 88900 M⁻¹ s⁻¹.

Another assay has as its target T2, human CD137-Fc (human, biotin-labeled).
T2 construct: if 90 already holds the Fc, drop the second piece; also called biotin-labeled human CD137 fused to human IgG1 Fc fragment; biotin-human CD137-Fc; not shown: human IgG1 Fc fragment
The assay is described as follows: bead ELISA on biotin-human CD137-Fc, 0 pmol free CD3e peptide. For orientation: In an ELISA, binding on a coated surface is turned into a signal by an enzyme label.
Molecule B8 returned an ELISA signal of 54400.
Take B9: the ELISA signal was determined as 9440.
In turn, B10 registered an ELISA signal of 19100.
Still for that read-out and setting: the value for B11 was 4800; that for B12 was 45200; that for B13 was 25700.
Still for that read-out and setting: the value for B14 was 27400; that for B15 was 18200; that for B16 was 34800.
For the molecule B17, the ELISA signal was determined as 40900.
B18 came in with an ELISA signal of 6540.
As for B19, the ELISA signal stood at 12100.
Same read-out and setting: the same measure for B20: 34000.
The molecule B21 gave an ELISA signal of 7190.
B22 came in with an ELISA signal of 61000.
The molecule B23 showed an ELISA signal of 43700.
The same measure, in the same setting: the value for B24 was 33100.

A further assay deals with T2, human CD137-Fc. The assay is described as follows: bead ELISA on biotin-human CD137-Fc, 125 vs 0 pmol free CD3e peptide.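 Also: target captured on streptavidin-coated magnetic beads, signal read as fluorescence 2 min after adding APS-5 substrate.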
B8 displayed a Signal decrease of 96.1%.
Same read-out and setting: the value for B9 was 79.6%; that for B10 was 87.3%; that for B11 was 60.8%.
B12 gave a Signal decrease of 95.2%.
On the same count and under the same terms, the value for B13 was 92.5%.
The molecule B14 showed a Signal decrease of 92%.
Same read-out and setting: the value for B15 was 87.5%; that for B16 was 92.8%.
B17 displayed a Signal decrease of 94.2%.
On the same count and under the same terms, the same measure for B18: 68.8%; for B19: 84%.
On the same count and under the same terms, the same measure for B20: 93%; for B21: 55%; for B22: 95.7%.
Turning to B23, the Signal decrease amounted to 95.7%.
In turn, B24 returned a Signal decrease of 93.3%.

Another assay has as its target T2, human CD137-Fc. In words: bead ELISA on biotin-human CD137-Fc with 125 pmol/well free CD3e peptide as competitor.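 Also: Streptavidin-coated magnetic beads in blocking buffer as the capture surface, well signal read as fluorescence 2 min after adding APS-5 substrate.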
Regarding B8, the ELISA signal was 2110.
Same read-out and setting: the value for B9 was 1920; that for B10 was 2420; that for B11 was 1880.
On the same count and under the same terms, the value for B12 was 2190; that for B13 was 1940.
The same measure, in the same setting: the value for B14 was 2190.
B15 registered an ELISA signal of 2280.
Still for that read-out and setting: the value for B16 was 2500; that for B17 was 2370; that for B18 was 2040.
On the same count and under the same terms, the same measure for B19: 1930; for B20: 2370.
Still for that read-out and setting: the value for B21 was 3240; that for B22 was 2620.
For the molecule B23, the ELISA signal is 1880.
On the same count and under the same terms, the same measure for B24: 2220.

A word on the Kd: it is the constant that tells how readily two partners part at equilibrium. The koff is the first-order rate constant of dissociation. Higher therefore signals fast dissociation. As usually defined, the kon is the rate constant with which the complex forms. Higher therefore signals fast association.
